T1: cellular membrane CD40L expressed on D1.1 cells (CRL-10915) (UniProt P29965 1-261, limits assumed)
T1 construct: whole, on cells; also called mCD40L; cell membrane CD40L
T1 sequence (looked up): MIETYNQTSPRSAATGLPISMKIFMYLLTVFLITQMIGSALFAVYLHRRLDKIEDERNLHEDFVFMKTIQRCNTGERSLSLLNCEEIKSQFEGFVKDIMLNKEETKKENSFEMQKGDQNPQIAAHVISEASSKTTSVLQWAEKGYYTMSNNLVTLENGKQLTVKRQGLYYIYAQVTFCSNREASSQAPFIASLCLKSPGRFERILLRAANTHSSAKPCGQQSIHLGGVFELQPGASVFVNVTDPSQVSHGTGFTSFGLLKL

T2: recombinant human CD40L (rhCD40L-his) (human, UniProt P29965 113-261, limits assumed)
T2 construct: The construct is purified by IMAC and named rhCD40L-his; also called rhCD40L antigen; soluble CD40L
T2 sequence (looked up): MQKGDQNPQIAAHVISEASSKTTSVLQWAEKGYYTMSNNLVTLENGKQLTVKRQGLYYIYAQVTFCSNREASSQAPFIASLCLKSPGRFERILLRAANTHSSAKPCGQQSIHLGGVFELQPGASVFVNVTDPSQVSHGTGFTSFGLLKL


Legend:
[1] = target: T1, cellular membrane CD40L expressed on …; assay: flow cytometry on D1.1 cells, anti-human kappa-FITC
[2] = target: T3, human serum albumin (HSA) (Sigma-Aldrich) (human, UniProt P02768 25-609); assay: BLI (Octet RED), HSA immobilised on AR2G biosensor
Description: (§1) The purified antibodies were continuously treated in a 1× kinetic buffer at pH 7.4 for two-fold dilution.

[3] = target: T3, human serum albumin (HSA) …; assay: BLI (Octet RED), average of two runs
Protocol: (§2) The binding and dissociation kinetics were obtained using Octet QK software. Binding rate constants were calculated such that the observed binding curves are fitted to a 1:1 binding model.

[4] = target: T3, human serum albumin (HSA) …; assay: BLI (Octet RED), second run
Protocol: as §2

[5] = target: T3, human serum albumin (HSA) …; assay: BLI (Octet RED)
Protocol: as §2

[6] = target: T3, human serum albumin (HSA) …; assay: BLI (Octet RED), HSA immobilised on AR2G biosensor, first run
Protocol: as §2

[7] = target: T4, recombinant human TNF-α protein (BioLegend) (human, UniProt P01375 77-233); assay: BLI (Octet RED), TNF-α immobilised on AR2G biosensor
T4 construct: also called soluble TNF-α; recombinant soluble TNF-α protein
Description: as §1

[8] = target: T2, recombinant human CD40L (rhCD40L-his); assay: BLI (Octet RED), CD40L immobilised on AR2G biosensor
Description: as §1

[9] = target: T2, recombinant human CD40L (rhCD40L-his); assay: ELISA, CD40L coated, anti-human Fd-HRP
Description: HRP-conjugated goat anti-human Fd antibodies were used as secondary antibodies.

[10] = target: T4, recombinant human TNF-α protein …; assay: cell-based or functional assay

T4 sequence (P01375 77-233 limits assumed): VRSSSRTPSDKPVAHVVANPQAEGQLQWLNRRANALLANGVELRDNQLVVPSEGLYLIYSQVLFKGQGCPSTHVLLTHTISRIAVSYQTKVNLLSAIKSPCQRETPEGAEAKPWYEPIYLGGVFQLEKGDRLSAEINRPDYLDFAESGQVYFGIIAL

Row | binding result [1] | Kd [2] [nM] | koff [2] [s⁻¹] | kon [2] [M⁻¹ s⁻¹] | Kd [3] [nM] | koff [3] [s⁻¹] | kon [3] [M⁻¹ s⁻¹] | Kd [4] [nM] | fold of KD against SL335-HSA KD [5] [fold] | Kd [6] [nM] | Kd [7] [nM] | koff [7] [s⁻¹] | kon [7] [M⁻¹ s⁻¹] | Kd [8] [nM] | koff [8] [s⁻¹] | kon [8] [M⁻¹ s⁻¹] | fold lower binding capacity against anti-human CD40L IgG1 (ruplizumab) [9] [fold] | IC50, HEK-Blue reporter (SEAP), soluble TNF-α 10 ng/ml (FIG. 22B) [10] [nM] | Binder | IC50, inhibition of TNF-α mediated cytotoxicity, L929 mouse cells, HSA present (CCK-8) [10] [nM]
1 | no binding | 0.286 | 0.000288 | 1.01e+06 | – | – | – | – | – | – | – | – | – | – | – | – | – | – | SL335 Fab (anti-HSA Fab) (Fab, V domains shown, also called anti-HSA Fab (SL335)) VH: QVQLVQSGGGPVKPGGSLRLSCAASGFMFRAYSMNWVRQAPGKGLEWVSSISSSGRYIHYADSVKGRFTISRDNAKNSLYLQMNSLRAEDTAVYYCARETVMAGKALDYWGQGTLVTVSS VL: DIVLTQSPGTLSLSPGETATLSCRASQSVGSNLAWYQQKPGQAPRLLIYGASTGATGVPARFSGSRSGTDFTLTITSLQPEDFATYYCQQYYSFLAKTFGQGTQLEIKR | –
2 | – | – | – | – | 0.688 | 0.00056 | 804000 | 0.628 | ~2.6 | 0.748 | – | – | – | – | – | – | – | – | APB-A1, recombinant antibody (anti-CD40L scFv)2-anti-HSA Fab (bispecific antibody, also called (anti-hu5c8 scFv)2-SL335; (scFv)2-Fab) heavy: DIVLTQSPATLSVSPGERATISCRASQRVSSSTYSYMHWYQQKPGQPPKLLIKYASNLESGVPARFSGSGSGTDFTLTISSVEPEDFATYYCQHSWEIPPTFGGGTKLEIKRGGGGSGGGGSGGGGSQVQLVQSGAEVVKPGASVKLSCKASGYIFTSYYMYWVKQAPGQGLEWIGEINPSNGDTNFNEKFKSKATLTVDKSASTAYMELSSLRSEDTAVYYCTRSDGRNDMDSWGQGTLVTVSSGGGGSGGGGSGGGGSQVQLVQSGGGPVKPGGSLRLSCAASGFMFRAYSMNWVRQAPGKGLEWVSSISSSGRYIHYADSVKGRFTISRDNAKNSLYLQMNSLRAEDTAVYYCARETVMAGKALDYWGQGTLVTVSSASTKGPSVFPLAPSSKSTSEGTAALGCLVKDYFPEPVTVSWNSGALTSGVHTFPAVLQSSGLYSLSSVVTVPSSSLGTQTYICNVNHKPSNTKVDKKVEPKSS light: DIVLTQSPATLSVSPGERATISCRASQRVSSSTYSYMHWYQQKPGQPPKLLIKYASNLESGVPARFSGSGSGTDFTLTISSVEPEDFATYYCQHSWEIPPTFGGGTKLEIKRGGGGSGGGGSGGGGSQVQLVQSGAEVVKPGASVKLSCKASGYIFTSYYMYWVKQAPGQGLEWIGEINPSNGDTNFNEKFKSKATLTVDKSASTAYMELSSLRSEDTAVYYCTRSDGRNDMDSWGQGTLVTVSSGSTSGSGKPGSGEGSTKGDIVLTQSPGTLSLSPGETATLSCRASQSVGSNLAWYQQKPGQAPRLLIYGASTGATGVPARFSGSRSGTDFTLTITSLQPEDFATYYCQQYYSFLAKTFGQGTQLEIKRTVAAPSVFIFPPSDEQLKSGTASVVCLLNNFYPREAKVQWKVDNALQSGNSQESVTEQDSKDSTYSLSNTLTLSKADYEKHKVYACEVTHQGLSSPVTKSFNRGES | –
3 | – | 0.765 | 0.00042 | 549000 | – | – | – | – | – | – | 0.164 | 3.82e-05 | 230000 | 0.192 | 0.000113 | 590000 | ~1.5 | 3.05 | APB-B1a, (anti-CD40L scFv)2-(anti-HSA Fab)-(anti-TNF-α Fv) (bispecific antibody, also called APB-1a; (scFv)2-Fab-Fv (certolizumab)) heavy: DIVLTQSPATLSVSPGERATISCRASQRVSSSTYSYMHWYQQKPGQPPKLLIKYASNLESGVPARFSGSGSGTDFTLTISSVEPEDFATYYCQHSWEIPPTFGQGTKLEIKRGGGGSGGGGSGGGGSQVQLVQSGAEVVKPGASVKLSCKASGYIFTSYYMYWVKQAPGQGLEWIGEINPSNGDTNFNEKFKSKATLTVDKSASTAYMELSSLRSEDTAVYYCTRSDGRNDMDSWGQGTLVTVSSGGGGSGGGGSGGGGSQVQLVQSGGGPVKPGGSLRLSCAASGFMFRAYSMNWVRQAPGKGLEWVSSISSSGRYIHYADSVKGRFTISRDNAKNSLYLQMNSLRAEDTAVYYCARETVMAGKALDYWGQGTLVTVSSASTKGPSVFPLAPSSKSTSEGTAALGCLVKDYFPEPVTVSWNSGALTSGVHTFPAVLQSSGLYSLSSVVTVPSSSLGTQTYICNVNHKPSNTKVDKKVEPKSSGGGGSGGGGSGGGGSEVQLVESGGGLVQPGGSLRLSCAASGYVFTDYGMNWVRQAPGKGLEWMGWINTYIGEPIYADSVKGRFTFSLDTSKSTAYLQMNSLRAEDTAVYYCARGYRSYAMDYWGQGTLVTVSS light: DIVLTQSPATLSVSPGERATISCRASQRVSSSTYSYMHWYQQKPGQPPKLLIKYASNLESGVPARFSGSGSGTDFTLTISSVEPEDFATYYCQHSWEIPPTFGQGTKLEIKRGGGGSGGGGSGGGGSQVQLVQSGAEVVKPGASVKLSCKASGYIFTSYYMYWVKQAPGQGLEWIGEINPSNGDTNFNEKFKSKATLTVDKSASTAYMELSSLRSEDTAVYYCTRSDGRNDMDSWGQGTLVTVSSGSTSGSGKPGSGEGSTKGDIVLTQSPGTLSLSPGETATLSCRASQSVGSNLAWYQQKPGQAPRLLIYGASTGATGVPARFSGSRSGTDFTLTITSLQPEDFATYYCQQYYSFLAKTFGQGTQLEIKRTVAAPSVFIFPPSDEQLKSGTASVVCLLNNFYPREAKVQWKVDNALQSGNSQESVTEQDSKDSTYSLSNTLTLSKADYEKHKVYACEVTHQGLSSPVTKSFNRGESGGGGSGGGGSGGGGSDIQMTQSPSSLSASVGDRVTITCKASQNVGTNVAWYQQKPGKAPKALIYSASFLYSGVPYRFSGSGSGTDFTLTISSLQPEDFATYYCQQYNIYPLTFGQGTKVEIKR | 5.3

From US20230220093A1 (published 2023)
